Legend:
[1] = test system: erythroid progenitors; experiment: Cytotoxicity by Trypan blue exclusion; type: cell-based
Experimental: The human K562 progenitor cell line (ATCC, CCL-243) was cultured in RPMI/10% FBS supplemented with penicillin and streptomycin. For differentiation, sodium butyrate (AldRick, Milwaukee, Wis.) was added in the medium (Witt et al. 2000. Blood 95:2391-2396). Terminal erythropoietic differentiation was measured as described by McGukin et al. (McGuckin et al. 2003. European Journal of Haematology 70:106-114) and positive cells enumerated after staining with 2,7-diaminofluorene (Sigma, St. Louis, Mo.). To quantify hemoglobin synthesis, the cells were centrifuged and washed in PBS, and the cell pellet resuspended in lysis buffer (100 mM potassium phosphate pH 7.8, 0.2% Triton X-100) before disruption by aspiration through a 21-gauge needle. After microcentrifugation, the supernatant was collected and the hemoglobin concentration was determined using the hemoglobin kit from Sigma. Cell viability was assessed by trypan blue dye exclusion and found to be equivalent (85-90% viability) between all samples studied.

[2] = test system: ERK-1/2; experiment: ERK-1/2 phosphorylation in COS-7/M6 stable transformants (Western blot); type: cell-based; conditions: 100 ng/ml
[3] = test system: CD44; experiment: CD44 phospho-serine sandwich ELISA; type: cell-based; conditions: MIF 100 ng/ml, 10 mins
Experimental: (§1) FIGS. 12A-12E show the phosphoserine content of CD74 and CD44 measured by ELISA. […] The ELISA values represent the mean±SD of triplicate measurements. Experiments were replicated twice. *P<0.02 versus corresponding control (Student's T test, two-tailed). […] Cell lysates were prepared and probed for PKA and PKC using phospho-specific, and total anti-PKA and anti-PKC antibodies.
Ser325 is constitutively phosphorylated in resting cells, but undergoes de-phosphorylation in response to PKC activating stimuli such as phorbol esters. […] The effect of MIF-stimulation CD44 phosphorylation was analyzed in the COS-7 and MEF cell lines by sandwich ELISA using an anti-CD44 capture antibody to quantify CD44 phospho-serine residues (Perez et al. (2003). Nature Immunol. 4:1083-92). […]
The serine phosphorylation of CD74 and CD44 was quantified by specific sandwich ELISA (Perez et al. (2003). Nature Immunol 4:1083-92). […] After several washes (0.5% Tween-20 in PBS), 0.2 μg/ml anti-phospho-serine antibody (Hypromatrix) conjugated with horseradish peroxidase was added, and immunoreactivity measured by the TMB reagent (DakoCytomation) and the data analyzed with SpectraMax Plus (Molecular Devices). […]

[4] = test system: PKA; experiment: Western analysis of kinase phosphorylation in COS-7/CD74+CD44 cells; type: cell-based; conditions: 100 ng/ml for 10 minutes
Experimental: as §1
Cell lysates were collected and analyzed by immunoblots using a pair of anti-phospho-PICA and anti-(total)-PKA antibodies, a pair of anti-phospho-PKC (all from Cell Signaling) and anti-(total)-PKC (Santa Cruz) antibodies, or a pair of anti-phospho-p56^lck (Cell Signaling) and anti-(total) p56^lck (sc-433, Santa Cruz) antibodies.

[5] = test system: p56^lck; experiment: Tyrosine kinase phosphorylation in COS-7/M6 transformants and MEFs (immunoblot); type: cell-based; conditions: only in the cells expressing both CD74 and full-length CD44
Experimental: Cells then were harvested and lysed in buffer containing 50 mM Hepes, pH7.5, 150 mM NaCl, 1.5 mM MgCl2, 1 mM EGTA, 1% Glycerol and 1% Triton X-100, and freshly added phosphatase and proteinase inhibitors (1 mM orthovanandate, 10 mM NaF, 10 μg/ml leupeptin, 25 μg/ml aprotinin and 50 μg/ml PMSF). For immunoblotting, 15-20 μg of cell lysate proteins were separated by 10% SDS-PAGE and transferred to PVDF Immobilon-P transfer membranes (Millipore). The blots were developed with specific primary antibodies that included a pair of anti-phospho-ERK-1/2 (sc-7383, Santa Cruz) and anti-(total) ERK-1/2 (sc-94, Santa Cruz) antibodies, a pair of anti-phospho-p56^lck (Cell Signaling) and anti-(total) p56^lck (sc-433, Santa Cruz) antibodies, or a pair of anti-phospho-Src and anti-(total) Src antibodies (Cell Signaling). The secondary antibodies included anti-mouse IgG or anti-rabbit IgG conjugated with horseradish peroxidase (Cell Signaling). The ECL detection reagents (Amersham) were used to visualize bands.

[6] = test system: primary macrophages; experiment: In vitro apoptosis, primary macrophages; type: cell-based, mouse; conditions: MIF 100 ng/ml; dependent on CD74 and CD44
Excerpt: Mice and Primary Cells. Wild-type (BALB/c or C57/B16), CD74-KO, (Shachar et al. (1996). Science 274:106-108), CD44-KO (Teder et al, (2002). Science 296:155-158), and MIF-KO (Bozza et al. (1999). J Exp Med 189:341-346), mice were bred at the Yale Animal Resource Center under strict, pathogen-free conditions. The KO strains were in genetically pure BALB/c or C57/B16 backgrounds (each at generation ≧N10). Mouse embryonic fibroblasts (MEFs) were obtained from 2 week-old embryos as described (Fingerle-Rowson et al. (2003). Proc Natl Acad Sci USA 100:9354-9359). […]
Apoptosis Studies. […] Cell lysates were collected, and caspase-3 activity analyzed using a colorimetric assay kit (R&D Systems). Cytoplasmic p53 content was analyzed as described previously (Mitchell et al. (2002). Proc Natl Acad Sci USA 99:345-350) by immunoblotting of mouse cytosolic fractions using a pair of anti-phospho-p53 (Ser15) (R&D Systems) and total anti-p53 antibodies (Cell Signaling); and for COS-7 cells, the anti-p53 (Ser15) and total anti-p53 antibodies (Cell Signaling). […] Mice were sacrificed 24 hrs after priming and the peritoneal macrophage cells collected and immediately analyzed for apoptosis by an ELISA that detects cytoplasmic oligonucleosomes (Roche Diagnostics). Primary macrophages also were immunostained by Alexa 488-conjugated, Annexin V (Invitrogen), and apoptotic cells enumerated by fluorescence microscopy.

B1: MIF: macrophage migration inhibitory factor; recombinant mouse or human MIF purified essentially free of endotoxin (protein)
chain: PMFIVNTNVPRASVPDGFLSELTQQLAQATGKPPQYIAVHVVPDQLMAFGGSSEPCALCSLHSIGKIGGAQNRSYSKLLCGLLAERLRISPDRVYINYYDMNAANVGWNNSTFA
[1]
  cytotoxic effects: Neither MIF nor anti-MIF were found to exert cytotoxic effects
[2]
  time of decay of ERK-1/2 phosphorylation: 30 min
[2]; cells transfected with CD74, CD44, CD74+CD44 or CD74+CD44^Δ67
  ERK-1/2 phosphorylation: induced ERK-1/2 phosphorylation only in those cells expressing both CD74 and full-length CD44
[3]
  net content of CD44 serine phosphorylation: did not change
[4]
  phosphorylation of PKA: MIF-dependent phosphorylation of PKA
[5]
  p56^lck phosphorylation: phosphorylated by MIF treatment
[6]
  protection from apoptosis: almost complete
